The values below come from PMC11059090.

The subject of series [1] is ALEXA-594-labeled rabbit anti-human IgG Fc-specific monoclonal (594-RAH) (rabbit). Kind of series: FRET titration. The conditions noted are these: apparent Kd, ITC: PBS (10 mM phosphate, 2.7 mM KCl, 137 mM NaCl, pH 7.4), 25 C, FRET: Ex 550 nm, Em 620/670 nm, titration buffer not stated.
The subject of series [2] is rabbit anti-human IgG Fc-specific monoclonal (RAH) (rabbit). The series can be described thus: ITC. The conditions noted are these: unlabeled IgG; 80 uM aptamer into 2.5 uM IgG; ITC: PBS (10 mM phosphate, 2.7 mM KCl, 137 mM NaCl, pH 7.4), 25 C; FRET: Ex 550 nm, Em 620/670 nm, titration buffer not stated.
The test system of series [3] is purified whole IgG from rabbit serum (polyclonal) (rabbit). The series can be described thus: ITC. The conditions noted are these: unlabeled IgG; 80 uM aptamer into 2.5 uM IgG; ITC: PBS (10 mM phosphate, 2.7 mM KCl, 137 mM NaCl, pH 7.4), 25 C; FRET: Ex 550 nm, Em 620/670 nm, titration buffer not stated.

On to “CCAACCACACATCCTTCCATCGACATGGACCCACCGTTCC [AptaShield DNA aptamer]”, for which the Kd in series [1] (RAH-594 titrated into 200 nM aptamer) was 0.095 µM; in series [1] (aptamer titrated into 200 nM RAH-594), 0.0445 µM; in series [2], 0.224 µM; in series [3], 0.89 µM.
